Reference: PMC8298264, “Function of cofactor Akirin2 in the regulation of gene expression in model human neutrophil-like HL60 cells” (Bioscience Reports, 2021)

Each molecule was assayed on human HL60 cells (assay: SWATH-MS proteomics, differential protein representation, akirin2 KO vs WT HL60 cells). Conditions: KO vs WT HL60 cells; sheet "Under-represented in KO".
Type: cell-based
How it was run: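 Differential representation compares akirin2 KO with WT HL60 across three biological replicates, 5 µg digest each, acquired by data-independent SWATH on a 120-min gradient. Library built from combined IDA runs searched with Paragon; proteins accepted at 1% FDR, with total-area-sum normalization.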

Row | Molecule | Fold Change | Log (Fold Change)
1 | sp¦O75915¦PRAF3_HUMAN (protein, UniProt O75915 1-188, looked up) PRA1 family protein 3: MDVNIAPLRAWDDFFPGSDRFARPDFRDISKWNNRVVSNLLYYQTNYLVVAAMMISIVGFLSPFNMILGGIVVVLVFTGFVWAAHNKDVLRRMKKRYPTTFVMVVMLASYFLISMFGGVMVFVFGITFPLLLMFIHASLRLRNLKNKLENKMEGIGLKRTPMGIVLDALEQQEEGINRLTDYISKVKE | 0.4503 | -0.3465
2 | sp¦Q92878¦RAD50_HUMAN (protein, UniProt Q92878 1-1312, looked up) DNA repair protein RAD50: MSRIEKMSILGVRSFGIEDKDKQIITFFSPLTILVGPNGAGKTTIIECLKYICTGDFPPGTKGNTFVHDPKVAQETDVRAQIRLQFRDVNGELIAVQRSMVCTQKSKKTEFKTLEGVITRTKHGEKVSLSSKCAEIDREMISSLGVSKAVLNNVIFCHQEDSNWPLSEGKALKQKFDEIFSATRYIKALETLRQVRQTQGQKVKEYQMELKYLKQYKEKACEIRDQITSKEAQLTSSKEIVKSYENELDPLKNRLKEIEHNLSKIMKLDNEIKALDSRKKQMEKDNSELEEKMEKVFQGTDEQLNDLYHNHQRTVREKERKLVDCHRELEKLNKESRLLNQEKSELLVEQGRLQLQADRHQEHIRARDSLIQSLATQLELDGFERGPFSERQIKNFHKLVRERQEGEAKTANQLMNDFAEKETLKQKQIDEIRDKKTGLGRIIELKSEILSKKQNELKNVKYELQQLEGSSDRILELDQELIKAERELSKAEKNSNVETLKMEVISLQNEKADLDRTLRKLDQEMEQLNHHTTTRTQMEMLTKDKADKDEQIRKIKSRHSDELTSLLGYFPNKKQLEDWLHSKSKEINQTRDRLAKLNKELASSEQNKNHINNELKRKEEQLSSYEDKLFDVCGSQDFESDLDRLKEEIEKSSKQRAMLAGATAVYSQFITQLTDENQSCCPVCQRVFQTEAELQEVISDLQSKLRLAPDKLKSTESELKKKEKRRDEMLGLVPMRQSIIDLKEKEIPELRNKLQNVNRDIQRLKNDIEEQETLLGTIMPEEESAKVCLTDVTIMERFQMELKDVERKIAQQAAKLQGIDLDRTVQQVNQEKQEKQHKLDTVSSKIELNRKLIQDQQEQIQHLKSTTNELKSEKLQISTNLQRRQQLEEQTVELSTEVQSLYREIKDAKEQVSPLETTLEKFQQEKEELINKKNTSNKIAQDKLNDIKEKVKNIHGYMKDIENYIQDGKDDYKKQKETELNKVIAQLSECEKHKEKINEDMRLMRQDIDTQKIQERWLQDNLTLRKRNEELKEVEEERKQHLKEMGQMQVLQMKSEHQKLEENIDNIKRNHNLALGRQKGYEEEIIHFKKELREPQFRDAEEKYREMMIVMRTTELVNKDLDIYYKTLDQAIMKFHSMKMEEINKIIRDLWRSTYRGQDIEYIEIRSDADENVSASDKRRNYNYRVVMLKGDTALDMRGRCSAGQKVLASLIIRLALAETFCLNCGIIALDEPTTNLDRENIESLAHALVEIIKSRSQQRNFQLLVITHDEDFVELLGRSEYVEKFYRIKKNIDQCSEIVKCSVSSLGFNVH | 0.4495 | -0.3473
3 | sp¦P61020¦RAB5B_HUMAN (protein, UniProt P61020 2-215, looked up) Ras-related protein Rab-5B: TSRSTARPNGQPQASKICQFKLVLLGESAVGKSSLVLRFVKGQFHEYQESTIGAAFLTQSVCLDDTTVKFEIWDTAGQERYHSLAPMYYRGAQAAIVVYDITNQETFARAKTWVKELQRQASPSIVIALAGNKADLANKRMVEYEEAQAYADDNSLLFMETSAKTAMNVNDLFLAIAKKLPKSEPQNLGGAAGRSRGVDLHEQSQQNKSQCCSN | 0.4514 | -0.3455
